Experimental data as given in US20240263180, “SMALL COMPLEMENTARY NUCLEIC ACIDS, COMPOSITIONS CONTAINING THE SAME, AND METHODS FOR USE AS ANTIVIRALS” (HOWARD UNIVERSITY, published 2024).

How the values were obtained:
U2AF65 [1] = biological target: T1, U2AF65 (UniProt P26368 P26368:2-475); test: EMSA; native PAGE; conditions: label: radiolabel
U2AF65 [2] = biological target: T1, U2AF65; test: EMSA; conditions: label: radiolabel

T1 sequence (P26368 2-475, one chain of several): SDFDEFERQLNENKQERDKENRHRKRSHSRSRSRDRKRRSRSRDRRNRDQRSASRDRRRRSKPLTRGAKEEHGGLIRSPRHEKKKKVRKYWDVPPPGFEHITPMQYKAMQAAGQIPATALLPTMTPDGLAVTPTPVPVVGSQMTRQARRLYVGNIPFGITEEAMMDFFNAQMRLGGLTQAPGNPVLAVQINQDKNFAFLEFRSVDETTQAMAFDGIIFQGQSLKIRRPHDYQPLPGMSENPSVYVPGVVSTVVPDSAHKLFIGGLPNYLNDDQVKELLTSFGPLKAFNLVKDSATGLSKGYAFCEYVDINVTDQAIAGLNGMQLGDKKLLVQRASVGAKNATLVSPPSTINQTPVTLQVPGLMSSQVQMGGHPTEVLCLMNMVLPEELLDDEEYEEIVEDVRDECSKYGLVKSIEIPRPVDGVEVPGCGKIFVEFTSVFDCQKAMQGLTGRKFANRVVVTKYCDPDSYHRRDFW

CACGCCUGUGAAACCGUACUAAGUCUCCCGUGUCUUCUUAUCACCAUCAG (ssRNA) [wt PyA+PyB RNA probe (HCMV MIE intron 4)]
binding result (U2AF65 [1]): binds

CACGCCUGUGAAACCGUACUAAGUCUCCCGUGUCAAGUUAUCACCAUCAG (ssRNA) [dPyB probe]
binding result (U2AF65 [2]): no binding

CACGCCUGUGAAACCGUACUAAGUCAGCCGUGUCAAGUUAUCACCAUCAG (ssRNA) [dPyAB probe]
binding result (U2AF65 [2]): no binding
